Values belong to the molecule of their own block, whether it stands above or below them.
Columns and labels:
[1] = molecular target: Human Insulin Receptor protein fragment (Abcam cat #ab200510) (human) (UniProt P06213); assay: ELISA on human insulin receptor fragment, relative to 83-14 mAb
[2] = molecular target: Human Insulin Receptor protein fragment (Abcam cat #ab200510) (human) (UniProt P06213); assay: ELISA on human insulin receptor fragment
[3] = molecular target: mouse insulin receptor (mInsR, R&D Systems, Inc., Cat. No. 7544-MR) (mouse) (UniProt P15208); assay: ELISA on mouse insulin receptor
[4] = molecular target: T1, mouse insulin receptor (mInsR, R&D Systems, Inc., Cat. No. 7544-MR) (mouse, UniProt P15208 28-946, limits assumed); assay: ELISA on mouse insulin receptor
T1 construct: extracellular domain; Bought protein; also called extracellular domain of the mouse insulin receptor

[5] = molecular target: T2, Human Insulin Receptor protein fragment (Abcam cat #ab200510) (human, UniProt P06213-2 28-944, limits assumed); assay: ELISA on human insulin receptor fragment, relative to 83-14 mAb
T2 construct: domain: extracellular domain of the alpha subunit; Bought fragment; also called HIR; extracellular domain of the alpha subunit of the human insulin receptor

[6] = molecular target: T2, Human Insulin Receptor protein fragment …; assay: ELISA on human insulin receptor fragment

- Receptor binding from antibody 83-14 mAb, % [1]: 126%
- EC50 [2]: 0.0262 µg/mL
- EC50 [3]: > 0.8 µg/mL
Molecule: HIR-MAB-IDS (antibody)

- EC50 [4]: > 0.8 µg/mL
- Receptor binding, % [4]: 0%
- Receptor binding from antibody 83-14 mAb, % [5]: 66%
- EC50 [6]: 0.0503 µg/mL
B1: HIR-FAB-IDS (SEQ ID NO: 2 and SEQ ID NO: 5) (Fab)
light: DIQMTQSPSSLSASLGERVSLTCRASQDIGGNLYWLQQGPDGTIKRLIYATSSLDSGVPKRFSGSRSGSDYSLTISSLESEDFVDYYCLQYSSSPWTFGGGTKMEIKRTVAAPSVFIFPPSDEQLKSGTASVVCLLNNFYPREAKVQWKVDNALQSGNSQESVTEQDSKDSTYSLSSTLTLSKADYEKHKVYACEVTHQGLSSPVTKSFNRGEC
heavy: QVQLQQSGPELVKPGALVKISCKASGYTFTNYDIHWVKQRPGQGLEWIGWIYPGDGSTKYNEKFKGKATLTADKSSSTAYMHLSSLTSEKSAVYFCAREWAYWGQGTLVTVSAASTKGPSVFPLAPSSKSTSGGTAALGCLVKDYFPEPVTVSWNSGALTSGVHTFPAVLQSSGLYSLSSVVTVPSSSLGTQTYICNVNHKPSNTKVDKKVEPKSCDKTHGGGGSGGGGSGGGGSSETQANSTTDALNVLLIIVDDLRPSLGCYGDKLVRSPNIDQLASHSLLFQNAFAQQAVCAPSRVSFLTGRRPDTTRLYDFNSYWRVHAGNFSTIPQYFKENGYVTMSVGKVFHPGISSNHTDDSPYSWSFPPYHPSSEKYENTKTCRGPDGELHANLLCPVDVLDVPEGTLPDKQSTEQAIQLLEKMKTSASPFFLAVGYHKPHIPFRYPKEFQKLYPLENITLAPDPEVPDGLPPVAYNPWMDIRQREDVQALNISVPYGPIPVDFQRKIRQSYFASVSYLDTQVGRLLSALDDLQLANSTIIAFTSDHGWALGEHGEWAKYSNFDVATHVPLIFYVPGRTASLPEAGEKLFPYLDPFDSASQLMEPGRQSMDLVELVSLFPTLAGLAGLQVPPRCPVPSFHVELCREGKNLLKHFRFRDLEEDPYLPGNPRELIAYSQYPRPSDIPQWNSDKPSLKDIKIMGYSIRTIDYRYTVWVGFNPDEFLANFSDIHAGELYFVDSDPLQDHNMYNDSQGGDLFQLLMP
notes: Variant of the Fab-iduronate-2-sulfatase fusion

More lines, now with the values behind:

Molecule: INSR/Insulin Receptor alpha Antibody 83-14 (Life technologies, cat#AHR0221)
- Receptor binding from antibody 83-14 mAb, % [1]: 102%
- EC50 [2]: 0.0321 µg/mL
- EC50 [3]: > 0.8 µg/mL

Molecule: Mouse Anti-Human Insulin Receptor Clone 83-14 mAb (Cell sciences, cat# MAI1) (antibody)
- Receptor binding from antibody 83-14 mAb, % [1]: 100%
- EC50 [2]: 0.0331 µg/mL
- EC50 [3]: > 0.8 µg/mL
